Residue numbers refer to the chain shown, from its start. Names may count otherwise. “And” between values parts separate entries of the source, which are not always exact repeats. Equal values may be shown once. Read-outs that look alike come from different tables or passages of the source. One block for each binder: values may come before it.
Assays:
[1] = target: T1, human CD11a (human, UniProt P20701 26-1170); assay: cell-based or functional assay
[2] = target: T2, rhesus CD11a (rhesus, UniProt H9Z8N3 26-1169); assay: cell binding EC50, rhesus against human CD11a
T2 construct: whole, on cells; also called rhCD11a
T2 sequence: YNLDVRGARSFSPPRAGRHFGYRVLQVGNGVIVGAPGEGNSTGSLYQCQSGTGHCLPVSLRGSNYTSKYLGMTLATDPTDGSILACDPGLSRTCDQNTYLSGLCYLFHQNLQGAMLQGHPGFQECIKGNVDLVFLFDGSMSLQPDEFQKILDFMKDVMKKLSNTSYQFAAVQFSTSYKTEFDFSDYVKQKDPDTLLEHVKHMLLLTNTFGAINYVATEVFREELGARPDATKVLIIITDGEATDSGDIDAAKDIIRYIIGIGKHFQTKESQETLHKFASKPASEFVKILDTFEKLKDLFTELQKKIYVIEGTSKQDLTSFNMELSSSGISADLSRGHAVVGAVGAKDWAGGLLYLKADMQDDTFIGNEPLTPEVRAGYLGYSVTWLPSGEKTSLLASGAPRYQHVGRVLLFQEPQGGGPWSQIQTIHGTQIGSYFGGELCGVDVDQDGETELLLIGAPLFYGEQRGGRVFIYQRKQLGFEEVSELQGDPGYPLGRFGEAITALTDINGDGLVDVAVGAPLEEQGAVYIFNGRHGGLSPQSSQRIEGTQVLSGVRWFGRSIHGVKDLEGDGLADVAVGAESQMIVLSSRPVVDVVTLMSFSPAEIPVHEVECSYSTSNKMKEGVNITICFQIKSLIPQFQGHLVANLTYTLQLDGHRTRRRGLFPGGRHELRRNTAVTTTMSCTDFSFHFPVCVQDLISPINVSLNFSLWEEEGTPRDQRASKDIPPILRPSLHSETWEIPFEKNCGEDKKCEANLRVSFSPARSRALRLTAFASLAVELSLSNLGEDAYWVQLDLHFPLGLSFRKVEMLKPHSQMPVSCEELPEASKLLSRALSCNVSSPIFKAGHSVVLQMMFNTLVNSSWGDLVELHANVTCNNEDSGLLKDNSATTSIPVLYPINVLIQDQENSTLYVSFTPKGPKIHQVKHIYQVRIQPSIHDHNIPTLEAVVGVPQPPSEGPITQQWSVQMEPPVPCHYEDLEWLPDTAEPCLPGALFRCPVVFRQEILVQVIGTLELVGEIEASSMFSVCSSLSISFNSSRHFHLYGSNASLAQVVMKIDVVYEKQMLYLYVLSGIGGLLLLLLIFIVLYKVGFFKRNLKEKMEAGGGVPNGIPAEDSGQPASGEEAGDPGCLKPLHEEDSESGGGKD

[3] = target: T1, human CD11a; assay: saturation binding, human lymphocytes, donor 1, Kd(app)
[4] = target: T1, human CD11a; assay: saturation binding, human lymphocytes, donor 2, Kd(app)
[5] = target: T1, human CD11a; assay: saturation binding of 125I-antibody to human mononuclear cells, Kd(app)
[6] = target: T1, human CD11a; assay: FACScan, Jurkat cells
[7] = target: T1, human CD11a; assay: FACScan, Jurkat cells; remark: listed apart in the source
[8] = target: T1, human CD11a; assay: FACScan, Jurkat cells; remark: listed apart in the source
[9] = target: T1, human CD11a; assay: FACScan, Jurkat cells; remark: listed apart in the source
[10] = target: T1, human CD11a; assay: cell-based or functional assay; remark: listed apart in the source
[11] = target: T2, rhesus CD11a; assay: binding to rhesus peripheral blood lymphocytes
[12] = target: T2, rhesus CD11a; assay: binding to rhesus peripheral blood lymphocytes; remark: listed apart in the source
[13] = target: T2, rhesus CD11a; assay: cell-based or functional assay
[14] = target: T3, rhesus-human chimeric CD11a (Rh/HuCD11a) (human (I-domain mutated to rhesus), UniProt P20701 26-1170); assay: cell-based or functional assay
T3 sequence (looked up): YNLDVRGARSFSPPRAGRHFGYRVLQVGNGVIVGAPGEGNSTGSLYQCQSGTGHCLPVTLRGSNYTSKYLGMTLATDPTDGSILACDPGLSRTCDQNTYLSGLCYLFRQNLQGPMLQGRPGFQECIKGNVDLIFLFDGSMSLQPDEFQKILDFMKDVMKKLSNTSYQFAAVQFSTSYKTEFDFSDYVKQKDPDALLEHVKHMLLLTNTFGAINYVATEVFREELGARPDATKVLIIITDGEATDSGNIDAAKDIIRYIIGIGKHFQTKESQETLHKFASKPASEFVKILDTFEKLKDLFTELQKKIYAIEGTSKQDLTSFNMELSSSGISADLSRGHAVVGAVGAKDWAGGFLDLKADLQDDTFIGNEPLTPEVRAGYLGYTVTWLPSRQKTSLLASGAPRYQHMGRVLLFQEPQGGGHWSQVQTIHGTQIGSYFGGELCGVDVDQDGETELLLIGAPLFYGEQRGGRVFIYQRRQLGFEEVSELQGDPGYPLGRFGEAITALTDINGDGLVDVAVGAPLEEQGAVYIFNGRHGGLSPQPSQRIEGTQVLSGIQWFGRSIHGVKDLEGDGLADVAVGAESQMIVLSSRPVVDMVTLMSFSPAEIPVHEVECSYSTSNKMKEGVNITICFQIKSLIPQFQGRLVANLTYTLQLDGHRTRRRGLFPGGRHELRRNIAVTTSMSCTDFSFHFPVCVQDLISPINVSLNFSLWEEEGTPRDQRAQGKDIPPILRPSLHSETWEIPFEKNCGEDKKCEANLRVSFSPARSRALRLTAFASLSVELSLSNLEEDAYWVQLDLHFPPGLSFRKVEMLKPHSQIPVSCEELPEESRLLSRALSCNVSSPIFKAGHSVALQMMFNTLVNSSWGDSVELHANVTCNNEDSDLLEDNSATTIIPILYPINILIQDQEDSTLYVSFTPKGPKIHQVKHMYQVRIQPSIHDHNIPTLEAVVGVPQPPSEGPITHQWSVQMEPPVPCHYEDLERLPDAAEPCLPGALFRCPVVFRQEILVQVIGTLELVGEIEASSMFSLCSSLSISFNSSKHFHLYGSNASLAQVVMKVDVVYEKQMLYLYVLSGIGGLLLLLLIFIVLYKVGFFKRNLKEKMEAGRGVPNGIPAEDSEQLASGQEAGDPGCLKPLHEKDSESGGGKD

[15] = target: T2, rhesus CD11a; assay: cell-based or functional assay; remark: listed apart in the source
[16] = target: T3, rhesus-human chimeric CD11a (Rh/HuCD11a); assay: cell-based or functional assay; remark: listed apart in the source
[17] = target: T2, rhesus CD11a; assay: cell-based or functional assay; remark: listed apart in the source
[18] = target: T2, rhesus CD11a; assay: saturation binding, Kd(app)
[19] = target: T2, rhesus CD11a; assay: binding to rhesus peripheral blood lymphocytes; remark: listed apart in the source
[20] = target: T2, rhesus CD11a; assay: saturation binding, rhesus leukocytes, donor 1, Kd(app)
[21] = target: T2, rhesus CD11a; assay: cell binding EC50 on rhesus CD11a against HuIgG1 on human CD11a
[22] = target: T2, rhesus CD11a; assay: saturation binding, rhesus leukocytes, donor 3, with 1 mg/ml human IgG1, Kd(app)

B2: chimeric MHM24 IgG1 (chIgG1) (antibody, V domains shown)
VH: EVQLQQPGAELMRPGASVKLSCKASGYSFTGHWMNWVRQRPGQGLEWIGMIHPSDSETRLNQKFKDKATLTVDKSSSSAYMQLSSPTSEDSAVYYCARGIYFYGTTYFDYWGQGTTLTVSS
VL: DVQITQSPSYLAASPGETISINCRASKTISKYLAWYQEKPGKTNKLLIYSGSTLQSGIPSRFSGSGSGTDFTLTISSLEPEDFAMYYCQQHNEYPLTFGTGTKLELKR
notes: Murine VL and VH fused to human constant light and heavy (IgG1) chains; also called chimeric IgG1; chlgG1
EC50 [6]: 0.0052 µg/mL
EC50 F(ab)/EC50 F(ab)-2 [7]: 0.006 ratio
IC50, blocking of cell adhesion, Jurkat:HuK [1]: 0.1 nM

B3: humanized MHM24 IgG1 (HuIgG1) (antibody, V domains shown)
VH: EVQLVESGGGLVQPGGSLRLSCAASGYSFTGHWMNWVRQAPGKGLEWVGMIHPSDSETRYNQKFKDRFTISVDKSKNTLYLQMNSLRAEDTAVYYCARGIYFYGTTYFDYWGQGTLVTVSS
VL: DIQMTQSPSSLSASVGDRVTITCRASKTISKYLAWYQQKPGKAPKLLIYSGSTLQSGVPSRFSGSGSGTDFTLTISSLQPEDFATYYCQQHNEYPLTFGQGTKVEIKR
notes: F(ab)-8 VL and VH fused to human constant light and IgG1 heavy chains; also called HulgG1; huMHM24
EC50 F(ab)/EC50 F(ab)-2 [7]: 0.004 ratio
EC50 [8]: 0.042 nM
Var.EC50/HuIgG1 EC50 [9]: 1 ratio
IC50, blocking of cell adhesion, Jurkat:HuK [1]: 0.13 nM
IC50, human mixed lymphocyte response assay [10]: 0.38 nM
fold reduction in binding against human CD11a [2]: ~1000 fold
EC50 [11]: 45.6 nM
Var.EC50/HuIgG1 EC50 [12]: 1 ratio
Kd [3]: 0.11 nM
Kd [4]: 0.18 nM
Kd [5]: 0.15 nM

B4: humanized MHM24 F(ab)-6 (Fab, V domains shown)
VH: B3 VH with Y27F, K76S, N77S
VL: DIQMTQSPSSLSASVGDRVTITCRASKTISKYLAWYQQKPGKAPKLLIYSGSTLQSGVPSRFSGSGSGTDFTLTISSLQPEDFATYYCQQHNEYPLTFGQGTKVEIK
fold improvement in binding over F(ab)-5 [6]: 4 fold
EC50 F(ab)/EC50 F(ab)-2 [7]: 0.012 ratio

B5: humanized MHM24 F(ab)-7 (Fab, V domains shown)
VH: B3 VH with K76S, N77S
VL: B4 VL
fold improvement in binding over F(ab)-6 [6]: 3 fold
EC50 F(ab)/EC50 F(ab)-2 [7]: 0.004 ratio

B6: humanized MHM24 F(ab)-2 (Fab, V domains shown)
VH: B3 VH with Y27F, K74N
VL: B4 VL with T53S, Q55E
notes: F(ab) from E. coli
fold weaker EC50 than chimeric IgG1 [6]: 148 fold
EC50 [7]: 0.771 µg/mL
EC50 F(ab)/EC50 F(ab)-2 [7]: 1 ratio

B8: H2C11 variant IgG1 (antibody, V domains shown)
VH: B3 VH with H52A, S54A, D55S, E57N
VL: B4 VL
notes: HuIgG1 variant, human IgG1
EC50 [19]: 0.11 nM
fold improvement over the EC50 of HuIgG1 for rhesus CD11a [19]: 240 to 415 fold
Var.EC50/HuIgG1 EC50 [12]: 0.002 ratio
fold weaker than the EC50 of HuIgG1 for human CD11a [21]: 3 to 5 fold

Next, values leading:

IC50, blocking of cell adhesion, Jurkat:HuK [1]: 0.09 nM
fold reduction in binding against human CD11a [2]: ~1000 fold
Kd [3]: 0.16 nM
Kd [4]: 0.13 nM
Kd [5]: 0.15 nM
B1: murine MHM24 (antibody, V domains shown)
VH: B2 VH
VL: B2 VL
notes: Murine monoclonal antibody; also called muMHM24; murMHM24

fold less efficacious than MHM23, rhesus lymphocytes to human keratinocytes [13]: 74 fold
fold less efficacious than MHM23, rhesus lymphocytes to recombinant human ICAM-1 [13]: 4 fold
fold down from MHM23, Rh/HuCD11a-293 cells to human keratinocytes [14]: 4 fold
IC50, blocking of cell adhesion, RhLy:HuICAM [15]: 5.3 nM
IC50, blocking of cell adhesion, RhLy:HuK [15]: 119 nM
IC50, blocking of cell adhesion, Rh/HuCD11a:HuK [16]: 4.9 nM
IC50, rhesus mixed lymphocyte response assay [17]: 23.4 nM
fold down in Kd from HuIgG1 for human CD11a [18]: ~26 fold
EC50 [19]: 0.19 nM
fold improvement over the EC50 of HuIgG1 for rhesus CD11a [19]: 240 to 415 fold
Var.EC50/HuIgG1 EC50 [12]: 0.004 ratio
Kd [20]: 3.9 nM
fold weaker than the EC50 of HuIgG1 for human CD11a [21]: 3 to 5 fold
Kd [22]: 2.8 nM and 2.7 nM
B7: rhesus-binding MHM24 (RhIgG1), variant H2C12 (antibody, V domains shown)
VH: B3 VH with H52A, S54A, D55S, E57S
VL: B3 VL
notes: Human IgG1; also called H2C l2; H2Cl2

binding result [7]: no binding
B9: humanized MHM24 F(ab)-1 (Fab, V domains shown)
VH: B3 VH with Y27F, N61A, Q62D, K63S, F64V, D66G, K74N
VL: B4 VL with T53S, Q55E
notes: F(ab) from E. coli (VH-CH1 and kappa light chain)

Source: patent publication EP1516629B1 (Genentech, Inc., dated 2013)
